Earlier results as cited in paper PMC4941815.

Key:
SRPK1 (Homo sapiens) = SRPK1 (Homo sapiens) (UniProt Q96SB4); experiment: competition
CLK1 (Homo sapiens) = CLK1 (Homo sapiens) (UniProt P49759); experiment: competition
Sequence of CLK1 (Homo sapiens) (P49759 whole entry): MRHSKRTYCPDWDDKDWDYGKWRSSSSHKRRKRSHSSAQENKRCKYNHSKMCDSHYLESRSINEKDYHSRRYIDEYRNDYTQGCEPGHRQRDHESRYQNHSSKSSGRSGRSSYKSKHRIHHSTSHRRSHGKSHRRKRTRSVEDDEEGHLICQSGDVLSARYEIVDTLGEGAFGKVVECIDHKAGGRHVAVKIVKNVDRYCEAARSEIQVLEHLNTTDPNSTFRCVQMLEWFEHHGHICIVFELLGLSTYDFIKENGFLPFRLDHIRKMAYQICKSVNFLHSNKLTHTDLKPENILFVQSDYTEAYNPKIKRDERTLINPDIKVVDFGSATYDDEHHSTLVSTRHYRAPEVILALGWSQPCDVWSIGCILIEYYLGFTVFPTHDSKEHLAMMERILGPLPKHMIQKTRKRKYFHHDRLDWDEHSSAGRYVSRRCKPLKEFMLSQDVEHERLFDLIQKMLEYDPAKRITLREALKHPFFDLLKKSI

Sequence of SRSF1 (Q07955 2-248): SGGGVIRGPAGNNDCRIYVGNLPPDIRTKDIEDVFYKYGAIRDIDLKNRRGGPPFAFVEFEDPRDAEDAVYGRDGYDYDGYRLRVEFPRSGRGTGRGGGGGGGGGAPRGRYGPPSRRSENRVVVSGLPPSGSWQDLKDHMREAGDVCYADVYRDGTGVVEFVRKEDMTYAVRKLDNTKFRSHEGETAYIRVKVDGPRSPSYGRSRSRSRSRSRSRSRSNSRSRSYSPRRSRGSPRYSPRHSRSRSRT
Sequence of SRPK1 (Homo sapiens) (Q96SB4 whole entry): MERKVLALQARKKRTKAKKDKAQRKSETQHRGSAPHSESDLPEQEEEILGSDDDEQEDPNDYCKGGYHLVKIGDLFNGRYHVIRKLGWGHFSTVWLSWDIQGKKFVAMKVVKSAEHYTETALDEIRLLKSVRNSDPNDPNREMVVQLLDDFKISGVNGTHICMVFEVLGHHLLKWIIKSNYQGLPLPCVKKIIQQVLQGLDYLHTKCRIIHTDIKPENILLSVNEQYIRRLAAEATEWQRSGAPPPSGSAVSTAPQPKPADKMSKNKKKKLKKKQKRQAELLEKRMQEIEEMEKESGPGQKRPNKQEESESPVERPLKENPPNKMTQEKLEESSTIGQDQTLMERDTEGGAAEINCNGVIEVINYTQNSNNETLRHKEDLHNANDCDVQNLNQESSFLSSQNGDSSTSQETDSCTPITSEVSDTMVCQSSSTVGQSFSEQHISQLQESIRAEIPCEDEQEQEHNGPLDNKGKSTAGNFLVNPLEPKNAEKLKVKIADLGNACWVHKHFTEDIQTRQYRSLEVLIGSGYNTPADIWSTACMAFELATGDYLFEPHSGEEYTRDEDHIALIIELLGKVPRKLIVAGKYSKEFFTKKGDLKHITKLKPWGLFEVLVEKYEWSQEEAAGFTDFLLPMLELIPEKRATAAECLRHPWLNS

Kd (SRPK1 (Homo sapiens)): 0.06 µM
Kd (CLK1 (Homo sapiens)): 0.006 µM
Substance: SRSF1 (from UniProt Q07955)
